Patent US20190002945A1

Molecular target: deglycosylated rituximab (Fucα1,6GlcNAc-rituximab)
Assay: cell-based or functional assay

Row | Substance | KM (µM), transglycosylation kinetics for the deglycosylated rituximab | KM relative to Endo-S2 D184M
1 | Endo-S2 D184A mutant (D184A mutant of wild type Endo-S2) (from UniProt T1WGN1 37-843) (enzyme) | > 680 µM | > 20 fold
2 | Endo-S D233M mutant (Streptococcus pyogenes Endoglycosidase-S Asp-233-Met) (from UniProt Q99Y92 37-995) (enzyme) | 30.2 µM | 
3 | Endo-S2 D184M mutant (D184M mutant of wild type Endo-S2) (from UniProt T1WGN1 37-843) (enzyme) | 32.6 µM | 
4 | Endo-S D233A mutant (Streptococcus pyogenes Endoglycosidase-S Asp-233-Ala) (from UniProt Q99Y92 37-995) (enzyme) | > 200 µM | 
